Laboratory results: the nanobody polyreactivity screen of Harvey et al. (2022)

Experiment: yeast display, Sf9 membrane polyspecificity reagent, FACS + sequencing; frameworks hold sequencing errors
Outline: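 Synthetic nanobody libraries on Saccharomyces cerevisiae BJ5465 were galactose-induced for 36–48 hours, stained 1 hour at 4 °C with 10% biotinylated, detergent-solubilized Sf9 membrane reagent and enriched on streptavidin microbeads. FACS then separated cells into low and high (top ~1%) gates by anti-HA (expression) and streptavidin (reagent binding) fluorescence. Genes were colony-PCR amplified, MiSeq 2 × 250 sequenced and CDR-length filtered. A clone's polyreactivity label is that of its gate of origin.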

Sequence	polyreactivity (PSR sort gate)
QVQLVESGGGLVKAGGSLRLSCAASGRIIEKYAMGWYRQAHGKEREFVAAIDWSGGSTYYADSVKGRFTISRDNAKNTVSLQKNSLKPEDTAVYYCAAYWYYEDGQSEARLYGYDYWGQGTQVTVSS	low polyreactivity
QVQLVESGGGLVQAGGSLRLSCAASGITFKRNAMGWYRQAPGKERELVAAISTTGGRTYYADSVKGRFTISRDNAKNTVYLQMNSLKPEDTAVYYCAARGGPVTYDYWGQGTQVTVSS	high polyreactivity
QVQLEESGGGIVQAGGSLRLSCAASGSTFVLNAMGWYRKAPGKERELVAAITRDGRTYYADSVKGRFTISRDNAKNTVYLQMNSLKPEDTAVYYCARPARYSYGDGYWGQGTLVTVSS	low polyreactivity
QVQLVESGGCLVQAGGSLRLSCAASGRIFQSYAMGWYRQAPGKESELVAAISQSGGSTYYADSVQGRFTISRDNAKNTVYVQMNSLKPEDTAVYYCAARSRWYKRYDYWGQGTQVTVSS	low polyreactivity
QVQLVESGGGLVQAGGSLRLSCAASGRIFLVYAMGWSRPAPGKERELVAAISYSGGRTYYADSVKGRFTISRDNAKNTVYLQMNSLKPEDTAVYYCAASPRYSYLAQGLDYDYWGQGTQVTVSS	high polyreactivity
QVQLVESGGGLVQAGGSLRLSCAASGFTFAWYAMGWYRPAPGKERELVAAISGSGGRTYYADSVKGRFTISRDNAKNTVYLQMNSLKPEDTAVYYFNTDRYWGKGDYWGQGTLVTVSS	high polyreactivity
QVQLVESGGGLVQAGGSLRLSCAASGRIFGPYAMGWYRQAPGKERELVASISYSGGSTYYADSVKGRFTISRDNAKNTVYLQMNSLKPEDTAVYYCARRAVYSKRRYDYWGQGTQVTVSS	low polyreactivity
QVQLVESRGGLVQAGGSLRLSCAASGFIFTRNAMGWYRQAHGKVRELVAAISYSGGSTYYADSVKGRFTISRDNAKNTVYLQMNSLKPEDTAVYYCNVSPTTSGDGGGYDSWGQGTLVTVSS	low polyreactivity
QVQLVESGGGLVQAGGTLRLSGAASGFIFPQYAMGWYRQAPGKERELVAAISTGGGSTYYADSVKGRFTISRDNAKNTVYLQMNSLKPEDTAVYYCNARPKYDSGHYYWGQGTQVTVSS	high polyreactivity
QVQLVESGGGLVQAGGSLRLSCAASGSTFKRYAMGWYRQAPGKERELVAAISLSSGSTYYADSVKGRFTISRDNAKNTVYLQMNSLKPEDTAVYYCNAAKTYPDVYEYDYWGQGTQVTVSS	high polyreactivity
QVQIGESGGGLVQAGGSLRLSCAACGFIFYRYAMGWYRQAPGKERELVAAISWSGGTTYYADSVKGRFTISRDNAKNTDYLQMNSLKPEDTAVYYCNARYPRSSPFGYWGQGTQVTVSS	high polyreactivity
QVQLVESGGGLVQAGGSLRLSCAASGITFRKYAMGWYRQAPGKERELVAGIRYSGSSTYYADSVKGRFTISRDNAKNTVYLQMNSLKPEDTAVYYCAVYGTTRYATTYDYWGQGTQVTVSS	high polyreactivity
QVQLVESGGGLVQAGGSLRLSCAASGSIFSVYAMGWYRQAPGKERELVAAIDFSGGSTYYADSVKGRFTISRDNPKNTVYLQMNSLKPEDTAVYYCAAEYLPYPEYEYDYWGQGTQVTVSS	low polyreactivity
QVQLVESGGGLVQAGGSVRLSCAASGSIFNANTMGWYRQAPGKERELVAVITSGGTTNYADSVKGRFTISRDNAKNTVYLQMNSLKPEDTAVYYCAVRISGNWYDYWGQGTQVTVSS	low polyreactivity
QVQLVESGGGLVQAGGSLRLSCAASGITFNRNAMGWYRQAPGKERELVAAISSDGNTNYADSVKGRFTISRDNAKNTVYLQMNSLKPEDTAVYYCAAPVIQITDVWYDAETYPDYDYWGQGTQVTVSS	low polyreactivity
QVQLVESGGGLVQAGGSLRLSCAASGFTFALYAMGWYRQAPGKEREFVAAITRSGGITYYADSVKGRFTFSRDNAKNTVYLQINSLKPEDTAVYYCAAVPRWSVYRAYGYWGQGTQVTVSS	high polyreactivity
QVQLVESGGGLVQAGGSLRLSCAASGLTFPSNAMGWYRPAPGKERELVAAISKRGGRTYYADSVKGRFTISRDNAKNTVYLQMNSLKPEDTAVYYCATPYAYPGTVQYAGYNYWGQGTQVTVSS	high polyreactivity
